This passage reports Km and kcat/Km results from article PMC2796240.

The subject of this data set is CCCCC(=O)Oc1ccc([N+](=O)[O-])cc1. Kind of data set: purified protein. The settings on record: pH 7.5, 14.5 mM Tris-HCl, 0.75% glycerol, 0.5% Triton X, 1.1 µM enzyme.

As for “F. solani cutinase (Fusarium vanettenii)”, the Km is reported as 1.48 ± 0.56 µM and the kcat/Km amounted to 10200 ± 6670 M⁻¹ s⁻¹.

By Km is commonly meant the concentration of substrate that gives half-maximal velocity. For orientation: kcat/Km means the second-order rate constant that governs catalysis at low substrate concentration.
